This is an account of results in patent US8993518B2, “Compositions and methods for treating antiphospholipid syndrome” (Beth Israel Deaconess Medical Center, Inc., priority 2010, dated 2015).

The target of assay [1] is T1, dimeric β2GPI-DV/anti-tag antibody complexes (Homo sapiens, UniProt P02749).
T1 construct: Domain V of β2GPI (residues 244-326), was subcloned into a pET15b vector (Novagen); histidine tag followed by TEV protease site (N, cleaved yes); made in house
T1 sequence (P02749 263-345): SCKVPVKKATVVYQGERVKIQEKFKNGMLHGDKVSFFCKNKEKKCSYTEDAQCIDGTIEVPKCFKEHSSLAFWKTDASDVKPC
Nature of the assay: Inhibition of binding of β2GPI-DV to cardiolipin in the presence of dimerization (anti-tag) antibodies. The settings on record: 30 nM β2GPI-DV, read-out: half-maximal inhibition of binding of β2GPI-DV to cardiolipin. How it is done: (§1) Cardiolipin-coated 96 well plates available as part of the ImmunoWELL cardiolipin IgG test kit (GenBio) were blocked with 0.5% of skim milk and 2% BSA in 20 mM Tris, 100 mM NaCl, 2 mM CaCl2, pH 7.4. The assay buffer contained 20 mM Tris, 100 mM NaCl, 2 mM CaCl2, pH 7.4 with 2% BSA and the wash buffer was 20 mM Tris, 100 mM NaCl, 2 mM CaCl2, pH 7.4. When the purified β2GPI (Haematologic Technologies, Inc.) was used in experiments, 27 mM glycine was added to the assay buffer to account for glycine present in the stock solution of β2GPI. β2GPI bound to cardiolipin was detected with peroxidase-conjugated anti-β2GPI antibodies (Cedarlane, CL20021HP, 2 mg/ml) diluted 1:2500. To detect β2GPI-DV bound to cardiolipin, we used peroxidase-conjugated anti-HA antibody (Abcam, ab1265, 1 mg/ml) directed to HA epitope tag at the N-terminus of β2GPI-DV diluted 1:2500. The peroxidase activity of the bound antibodies was detected using 2-2′-azino-di-[3-ethylbenzthizzoline]sulfonate (ABTS) chromogenic reagent by measuring OD at 405 nm. […] The fits of the raw data and the titration data points were then normalized to the maximum binding determined from the fit to facilitate comparison.
(§2) […] Then, samples were incubated on wells for an additional 1 hour and, after washing, the bound β2GPI/anti-β2GPI or β2GPI-DV/anti-tag antibody complexes were detected.

The target of assay [2] is T2, β2GPI/anti-β2GPI antibody complexes (β2GPI in normal human serum) (Homo sapiens, UniProt P02749).
T2 construct: pooled normal human serum (Innovative Research); tissue Innovative Research; host or cells: pooled normal human serum
T2 sequence (P02749 20-345): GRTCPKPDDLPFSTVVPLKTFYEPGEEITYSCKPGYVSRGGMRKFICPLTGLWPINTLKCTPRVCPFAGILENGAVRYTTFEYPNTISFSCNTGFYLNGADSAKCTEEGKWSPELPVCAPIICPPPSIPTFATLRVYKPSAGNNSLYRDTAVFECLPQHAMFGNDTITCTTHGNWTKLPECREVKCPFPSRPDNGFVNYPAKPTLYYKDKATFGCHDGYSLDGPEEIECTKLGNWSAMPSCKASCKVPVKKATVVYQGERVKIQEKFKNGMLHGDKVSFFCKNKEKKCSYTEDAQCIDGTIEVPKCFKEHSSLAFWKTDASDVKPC
As to the kind of experiment: Inhibition of binding of β2GPI in human serum to cardiolipin in the presence of anti-β2GPI antibodies. The settings on record: 0.04% human serum, read-out: half-maximal inhibition of binding of β2GPI in serum to cardiolipin. How it is done: as §1, §2

Assay [3] has as its target T3, β2GPI purified from human plasma (Homo sapiens, UniProt P02749).
T3 construct: We used β2GPI purified from human plasma available from Haematologic Technologies, Inc; purchased Haematologic Technologies, Inc; host or cells: human plasma
T3 sequence (P02749 20-345): T2 sequence (P02749 20-345)
As to the kind of experiment: Inhibition of binding of purified β2GPI to cardiolipin in the absence of anti-β2GPI antibodies. The following applies: in the absence of anti-β2GPI antibodies (FIG. 5). How it is done:
as §1, with “To detect β2GPI-DV bound to cardiolipin, we used peroxidase-conjugated anti-HA antibody (Abcam, ab1265, 1 mg/ml) directed to HA epitope tag at the N-terminus of β2GPI-DV diluted 1:2500.” left out
(§3) For the inhibition studies, increasing concentrations of A1 or A1-A1 were added to a constant amount of β2GPI (50 nM), normal human serum (1%) or β2GPI-DV (130 nM) and incubated for 1 hour at room temperature. […] Then, samples were incubated on wells for an additional 1 hour and, after washing, the bound β2GPI/anti-β2GPI or β2GPI-DV/anti-tag antibody complexes were detected.

Assay [4] has as its target T4, β2GPI in normal human serum (Homo sapiens, UniProt P02749).
T4 construct: pooled normal human serum (Innovative Research); tissue Innovative Research; host or cells: pooled normal human serum
T4 sequence (P02749 20-345): T2 sequence (P02749 20-345)
As to the kind of experiment: Inhibition of binding of β2GPI in human serum to cardiolipin in the absence of anti-β2GPI antibodies. The following applies: 1% human serum, read-out: concentration of inhibitor at 50% inhibition of β2GPI in serum binding to cardiolipin. How it is done: as §1, with “To detect β2GPI-DV bound to cardiolipin, we used peroxidase-conjugated anti-HA antibody (Abcam, ab1265, 1 mg/ml) directed to HA epitope tag at the N-terminus of β2GPI-DV diluted 1:2500.” left out
as §3

The target of assay [5] is T5, β2GPI/anti-β2GPI antibody complexes (β2GPI purified from human plasma) (Homo sapiens, UniProt P02749).
T5 construct: We used β2GPI purified from human plasma available from Haematologic Technologies, Inc; purchased Haematologic Technologies, Inc; host or cells: human plasma
T5 sequence (P02749 20-345): T2 sequence (P02749 20-345)
As to the kind of experiment: Inhibition of binding of purified β2GPI to cardiolipin in the presence of anti-β2GPI antibodies. The following applies: 10 nM purified β2GPI, one-site inhibition fit, read-out: half-maximal inhibition of binding of purified β2GPI to cardiolipin. How it is done: as §1, §2

Assay [6] concerns the target T6, domain V of β2GPI (β2GPI-DV) (Homo sapiens, UniProt P02749).
T6 construct: Domain V of β2GPI (residues 244-326), was subcloned into a pET15b vector (Novagen); histidine tag followed by TEV protease site (N, cleaved yes); made in house
T6 sequence (P02749 263-345): T1 sequence (P02749 263-345)
Nature of the assay: Inhibition of binding of isolated domain V of β2GPI to cardiolipin in the absence of antibodies. The settings on record: in the absence of dimerization antibodies, read-out: concentration at half-maximal inhibition of binding of domain V to cardiolipin. How it is done:
as §1, with “To detect β2GPI-DV bound to cardiolipin, we used peroxidase-conjugated anti-HA antibody (Abcam, ab1265, 1 mg/ml) directed to HA epitope tag at the N-terminus of β2GPI-DV diluted 1:2500.” left out
as §3

A further assay concerns the target T7, domain V of β2GPI (Homo sapiens, UniProt P02749).
T7 sequence (P02749 263-345 limits assumed): T1 sequence (P02749 263-345)
The settings on record: Lee et al., Structure 18:366-376, 2010; read-out: affinity of A1 for domain V of β2GPI; cited from earlier work.

Assay [7] in a line: Binding of β2GPI in normal human serum to cardiolipin-coated surface. How it is done: as §1, with “To detect β2GPI-DV bound to cardiolipin, we used peroxidase-conjugated anti-HA antibody (Abcam, ab1265, 1 mg/ml) directed to HA epitope tag at the N-terminus of β2GPI-DV diluted 1:2500.” left out
(§4) For the binding studies, 50 μl of increasing concentrations of either β2GPI (Haematologic Technologies, Inc.), pooled normal human serum (Innovative Research), or the purified recombinant β2GPI-DV were applied to wells and incubated for 1 hour at room temperature. […] Then, the samples were applied to cardiolipin, incubated for 1 hour, washed, and bound β2GPI or β2GPI-DV was detected.

The nature of assay [8]: Binding of purified β2GPI to cardiolipin-coated surface. Also noted: species or system human. The settings on record: read-out: half-maximal binding of purified β2GPI to cardiolipin. How it is done: as §1, with “To detect β2GPI-DV bound to cardiolipin, we used peroxidase-conjugated anti-HA antibody (Abcam, ab1265, 1 mg/ml) directed to HA epitope tag at the N-terminus of β2GPI-DV diluted 1:2500.” left out
as §4

The nature of assay [9]: Binding of β2GPI-DV to cardiolipin-coated surface. The following applies: read-out: binding of β2GPI-DV to cardiolipin, one-site model fit. How it is done:
as §1, with “To detect β2GPI-DV bound to cardiolipin, we used peroxidase-conjugated anti-HA antibody (Abcam, ab1265, 1 mg/ml) directed to HA epitope tag at the N-terminus of β2GPI-DV diluted 1:2500.” left out
as §4

[10] abbreviates: in the absence of anti-β2GPI antibodies.
The mark [11] stands for this setting: in the presence of anti-β2GPI antibodies.

With “A1: Monomeric first LA module, fragment of mouse ApoER2 (residues 12-47 of the mature protein)”, the IC50 in assay [1] is 204 ± 33 µM; in assay [2], 218 ± 21 µM; in assay [4], 176 ± 37 µM; in [5], 191 ± 34 µM; in [6] it was 188 ± 44 µM. The “inhibition of binding of purified β2GPI to cardiolipin” value in assay [3] is reported as “only weakly inhibited”. Further, the Kd in the assay with domain V of β2GPI is 1000 µM.

B1: β2GPI: Beta2-glycoprotein I, in pooled normal human serum or purified from human plasma (Haematologic Technologies, Inc.) (protein)
chain: T2 sequence (P02749 20-345)
Turning to B1, the entries for the “half-maximal binding of β2GPI in serum to cardiolipin” value in assay [7] (setting [10]) and in assay [7] (setting [11]) were 0.40±0.05 % of serum and 0.028±0.004 % of serum, respectively. For the same molecule, the figures for the EC50 in [8] (setting [10]) and in assay [8] (setting [11]) were 0.043 ± 0.004 µM and 0.0024 ± 0.0004 µM, respectively.

B2: β2GPI-DV: Recombinant isolated domain V of β2GPI (residues 244-326), with an N-terminal HA tag in the binding assays (protein)
chain: YPYDVPDYASCKVPVKKATVVYQGERVKIQEKFKNGMLHGDKVSFFCKNKEKKCSYTEDAQCIDGTIEVPKCFKEHSSLAFWKTDASDVKPC
In the case of B2, the EC50 in [9] (in the absence of anti-tag antibodies) was 0.112 ± 0.021 µM; in assay [9] (in the presence of anti-tag antibodies) it was 0.019 ± 0.001 µM.

B3: A1-A1: Dimeric inhibitor: two A1 (LA) modules from ApoER2 connected by a flexible Gly-Ser-Ser-Gly linker, SEQ ID NO: 1 (protein)
chain: AECEEDQFRCRNERCIPLVWRCDEDNDCSDNSDEDDCGSSGCEEDQFRCRNERCIPLVWRCDEDNDCSDNSDEDDCEA
Regarding B3, in assay [3], the “inhibition of binding of purified β2GPI to cardiolipin” value is reported as “only weakly inhibited”.
